Earlier results, collected in article PMC4077824, “Conserved Prosegment Residues Stabilize a Late-Stage Folding Transition State of Pepsin Independently of Ground States” (PLoS ONE, 2014).

System: αLP
Description: General thermodynamic and kinetic features of protein folding are known, such as that the natively folded conformation of a protein is thermodynamically stabilized and that there is a relationship between topology and folding rate, which holds for both two-state and multi-state folding proteins, [3]. […] In the case of pepsin, Rp was characterized by a ΔG unf of 5.8 kcal/mol, a 10% increase in unordered secondary structure and identical tertiary structure to Np (both yield R g ∼20 Å).

B1: αLP: serine peptidase αLP (alpha-lytic protease) (protein, UniProt P00778 200-397, looked up)
Alpha-lytic protease: ANIVGGIEYSINNASLCSVGFSVTRGATKGFVTAGHCGTVNATARIGGAVVGTFAARVFPGNDRAWVSLTSAQTLLPRVANGSSFVTVRGSTEAAVGAAVCRSGRTTGYQCGTITAKNVTANYAEGAVRGLTQGNACMGRGDSGGSWITSAGQAQGVMSGGNVQSNGNNCGIPASQRSSLFERLQPILSQYGLSLVTG
For B1, the “ΔG N-I” value (native state relative to an intermediate state, ref [8]) is listed as -4 kcal/mol, the “stability of intermediate over native state” value (αLP intermediate more stable than native state, ref [4]) is listed as 4 kcal/mol and the ΔG unf (αLP intermediate, ref [4]) is listed as 1 kcal/mol.
